# Laboratory results: patent US20160032292, “Aptamer-Guided Gene Targeting” (Georgia Tech Research Corporation, published 2016)
# T1: I-SceI homing endonuclease (expressed in yeast from GAL1-10 promoter) (UniProt P03882 P03882:1-235)
# T1 sequence: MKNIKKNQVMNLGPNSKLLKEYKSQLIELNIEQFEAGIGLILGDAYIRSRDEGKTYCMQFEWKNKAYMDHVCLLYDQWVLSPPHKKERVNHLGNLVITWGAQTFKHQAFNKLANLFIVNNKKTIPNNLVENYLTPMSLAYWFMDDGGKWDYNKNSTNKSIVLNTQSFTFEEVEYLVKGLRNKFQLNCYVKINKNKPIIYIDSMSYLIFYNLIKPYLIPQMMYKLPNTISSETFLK
# T2: I-SceI homing endonuclease (UniProt P03882 P03882:1-235)
# T2 sequence: T1 sequence
# B1: A7.ADE2.54 (ssDNA)
# DNA: GCGGGCGCTGTTGACAGCGGTCAGGTGGATGGGATGGGACATTATACCATTGATGCTTGCGTCACTTCTCAATTTGAAGCTCATTTGAGA
# B2: P1-r-P2 (ssDNA)
# DNA: CTTCTGCCCGCCTCCTTCCGGTCGGGCACACCTGTCATACCCAATCTCGAGGCCAGACGAGATAGGCGGACACT
# B3: A7.TRP5.40 (ssDNA)
# DNA: GCGGGCGCTGTTGACAGCGGTCAGGTGGATGGGATGGGTTTTGATGAAGCTGTCGCGGATCCCACATTCTGGGAAG
# B4: A7.TRP5.54 (ssDNA)
# DNA: GCGGGCGCTGTTGACAGCGGTCAGGTGGATGGGATGGGAAAAGGGTTTTGATGAAGCTGTCGCGGATCCCACATTCTGGGAAGACTTCAA
# B5: A7.LEU2.54 (ssDNA)
# DNA: GCGGGCGCTGTTGACAGCGGTCAGGTGGATGGGATGCGCTTTCATGGCCCTACAACATGAGCCACCATTGCCTATTTGGTCCTTGGATAA
# B6: A7.TRP1.54 (ssDNA)
# DNA: GCGGGCGCTGTTGACAGCGGTCAGGTGGATGGGATGGTGGCAAGAATACCAAGAGTTCCTCGGTTTGCCAGTTATTAAAAGACTCGTATT
# How the values were obtained:
# [1] = target: T1, I-SceI homing endonuclease (expressed …); experiment: cell_activity; gene correction over C.ADE2.54; BY4742 and 55R5-3C
# Method: (§1) Sequences of oligonucleotides used for repair can be found in Table 1. Cells from each transformation were diluted appropriately and plated to synthetic complete medium lacking the respective amino acid and containing 2% galactose for I-SceI induction, 2 or 0.2% galactose for HO induction or 2% glucose for I-SceI or HO repression. The exception to this is the experiment to determine the position of the aptamer in the targeting DNA sequence (at the 5′ or 3′ end). For this experiment, I-SceI was induced 3 h by addition of galactose (final concentration 2%) to the liquid YPLac medium before transformation by oligonucleotides, and cells were plated on selective media containing glucose. Viability after transformation was calculated by plating to glucose-containing synthetic complete medium. Viability after transformation for the I-SceI-containing strains was typically 20-40% both on glucose and galactose. […] The frequency of gene correction is based on the number of transformants relative to 10⁷ viable cells that formed a colony on galactose-containing synthetic complete medium (or glucose-containing synthetic complete medium depending on the transformation experiment). Yeast cell culture and standard molecular biology techniques were used as previously described […]
# [2] = target: T2, I-SceI homing endonuclease; experiment: EMSA; negative control; described as non-binding random control; 3 uM I-SceI, Mg2+, Zn2+, gel result not shown; details: tags: provided by F. Gimble (Purdue University), dialyzed; label: 5' 32P
# Method: The internal region was chosen using a random DNA sequence generator with a specified GC content of 50% (http://www.faculty.ucr.edu/˜mmaduro/random.htm). I-SceI was dialyzed before running the EMSA gels in Run Buffer 1 (RB1), 50 mM Tris-HCl at pH 8.2, as previously described. Bovine serum albumin (BSA) was purchased as a lyophilized powder through Sigma-Aldrich (St. Louis, Mo.) and was greater than 98% pure. BSA stock of 10 mg/ml was made in RB1 buffer.
# The buffer conditions used for binding had several components described previously (22). Each reaction consisted of 2 μL 5×EMSA buffer 1 (100 mM Tris-HCl at pH 8.5, 250 mM NaCl, 10 μM ZnCl₂, 10 mM MgCl₂, 10% glycerol), 1 μL BSA (10 mg/ml), 1 μL freshly prepared 20 mM DTT, and 1 μL 100 mM MgCl₂ for a final buffer concentration of 20 mM Tris-HCl, 50 mM NaCl, 2 μM ZnCl₂, […], 1 mg/ml BSA, […], and 2% glycerol. After mixing these components together, 2 μL of dialyzed I-SceI (total of 3 μM) for each reaction was added, bringing the volume to […]. The radiolabeling of the oligonucleotides had varying efficiencies such that the counts per minute (cpm) measurement of the radioactivity for each labeled oligonucleotide was different. […] The radioactivity in the gel was analyzed by Phosphor Imager (Molecular Dynamics—Typhoon Trio Imager™, GE Healthcare Life Sciences, Pittsburgh, Pa.). […]
# [3] = target: T1, I-SceI homing endonuclease (expressed …); experiment: cell_activity; gene correction over C.TRP5.40 (202 vs 13.9); 32-fold with PAGE-purified oligos
# [4] = target: T1, I-SceI homing endonuclease (expressed …); experiment: cell_activity; gene correction over non-binding C.TRP5.54 (62500 vs 8950 per 1e7 cells); galactose; details: aptamer hairpin at 5' end (predicted)
# Method: For this experiment, I-SceI was induced 3 h by addition of galactose (final concentration 2%) to the liquid YPLac medium before transformation by oligonucleotides, and cells were plated on selective media containing glucose. Viability after transformation was calculated by plating to glucose-containing synthetic complete medium. Viability after transformation for the I-SceI-containing strains was typically 20-40% both on glucose and galactose. […] The frequency of gene correction is based on the number of transformants relative to 10⁷ viable cells that formed a colony on galactose-containing synthetic complete medium (or glucose-containing synthetic complete medium depending on the transformation experiment). Yeast cell culture and standard molecular biology techniques were used as previously described
# Therefore, we removed the primer regions surrounding the I-Sce I aptamer sequence in the bifunctional oligonucleotides, and this also allowed us to extend the sequence length of the gene-correction donor part of the bifunctional molecule. Oligonucleotides that contained the aptamer sequences from A4 or A7 at the 5′ end of a DNA sequence containing 54 bases of homology to restore the disrupted trp5 gene (A4.TRP5.54 and A7.TRP5.54, Table 1) were tested in yeast strains FRO-155/156 and FRO-526/527 (T5B and T5 in FIG. 1) for their capacity to restore the functionality of the trp5 gene. […]
# [5] = target: T2, I-SceI homing endonuclease; experiment: capillary electrophoresis with LIF; binding affinity about 52.49 uM; binding also seen by EMSA; details: tags: provided by F. Gimble (Purdue University), dialyzed; label: FAM
# Method: (§2) The protocol for SELEX using capillary electrophoresis (CE) was essentially as described earlier (Berezovski, et al., Nat. Protoc., 1:1359-1369 (2006)), but with a few modifications. Initial calibrations were done with a serial dilution of the aptamer library in RB1. The free DNA run time with 100 nM of the library was determined (FIG. 8A). […] CE was done using a Beckman Coulter (Atlanta, Ga., USA) P/ACE MDQ with laser-induced fluorescence (LIF) detection. The LIF was composed of a 488-nm air-cooled argon ion laser along with an on-board detector. CE runs were carried out with a voltage of 10 kV. The first round of selection began after determination of the collection window based on the bulk affinity analysis. For the initial round of in vitro selection, the DNA library (5 μl at 200 μM) was mixed with 5 μl of selection buffer 3 (SB3) (100 mM Tris-HCl at pH 8.2, 200 mM NaCl and 10 mM MgCl₂) for a final concentration of 100 μM DNA library, 50 mM Tris-HCl at pH 8.2, 100 mM NaCl and 5 mM MgCl₂. This mixture was heated in the BioRad iCycler™ to 94° C. for 1 min, and then cooled to 20° C. at a rate of 0.5° C./s. After the folding of the DNA library, 5 μl of 200 nM I-SceI dissolved in selection buffer 1 (SB1) (50 mM Tris-HCl at pH 8.2, 100 mM NaCl and 5 mM MgCl₂) was added to 5 μl of the DNA-SB3 mixture to make the final volume to 10 μl. […]
# [6] = target: T1, I-SceI homing endonuclease (expressed …); experiment: cell_activity; gene correction over C.LEU2.54; BY4742 and 55R5-3C
# Method: as §1
# [7] = target: T1, I-SceI homing endonuclease (expressed …); experiment: cell_activity; gene correction over C.TRP1.54; 55R5-3C
# Method: as §1
# [8] = target: T2, I-SceI homing endonuclease; experiment: capillary electrophoresis with LIF; binding affinity about 3.16 uM; 50 nM A7, 1 uM I-SceI (FIG. 9D); binding also seen by EMSA; details: tags: provided by F. Gimble (Purdue University), dialyzed; label: 5' FAM; hairpin with 4-nt loop (mfold prediction)
# Method: as §2
binder,measurement,setting,value
B1,activity,[1],3 fold
B2,binding result,[2],no binding
B3,activity,[3],15 fold
B4,activity,[4],7 fold
TGAAGGCCAAAACGGCTGAATCGATAGT (ssDNA) [A4],Kd,[5],52.5 µM
B5,activity,[6],2 fold
B6,activity,[7],2.5 fold
GCGGGCGCTGTTGACAGCGGTCAGGTGGATGGGATG (ssDNA) [A7],Kd,[8],3.16 µM
